# According to the supplement of paper PMC10065799, “High-throughput profiling of sequence recognition by tyrosine kinases and SH2 domains using bacterial peptide display” (eLife, 2023):
# How the values were obtained:
# EPHB1 = EPHB1 (UniProt P54762); experiment: phosphorylation enrichment, bacterial display (enrichment ratio); higher = better substrate or ligand; peptides without Tyr show the background
# Fyn = Fyn (UniProt P06241); experiment: as above
# c-Abl (mouse) = experiment: as above
# AncSZ = experiment: as above
# Fes = Fes (UniProt P07332); experiment: as above
# MERTK = MERTK (UniProt Q12866); experiment: as above
# Fer (mouse) = experiment: as above
# Jak2 = Jak2 (UniProt O60674); experiment: as above
# Hck = Hck (UniProt P08631); experiment: as above
# EPHB2 = EPHB2 (UniProt P29323); experiment: as above
# c-Src = experiment: as above
# FGFR1 = FGFR1 (UniProt P11362); experiment: as above
# FGFR3 = FGFR3 (UniProt P22607); experiment: as above
# SHP2-C SH2 = experiment: SH2 binding enrichment of the phosphorylated peptide, bacterial display (enrichment ratio); higher = better substrate or ligand; peptides without Tyr show the background
# Grb2 SH2 = Grb2 SH2 (UniProt P62993); experiment: as above
# c-Src SH2 = experiment: as above
# 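Throughout, for SH2 binding enrichment of the phosphorylated peptide, bacterial display: peptide library displayed on the E. coli surface as eCPX fusions, selected cells deep-sequenced, score is each peptide's frequency after selection divided by its frequency in the input.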
# 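Throughout, for phosphorylation enrichment, bacterial display: 11-residue human phosphosite peptides and single-mutation variants displayed on the E. coli surface, counted by deep sequencing, each peptide's frequency after selection divided by its frequency in the unselected input library; frequency after pTyr selection over input frequency; kinase dosed for 20-30% of maximal phosphorylation in three min.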
# Fyn, sequence (P06241 whole entry, looked up): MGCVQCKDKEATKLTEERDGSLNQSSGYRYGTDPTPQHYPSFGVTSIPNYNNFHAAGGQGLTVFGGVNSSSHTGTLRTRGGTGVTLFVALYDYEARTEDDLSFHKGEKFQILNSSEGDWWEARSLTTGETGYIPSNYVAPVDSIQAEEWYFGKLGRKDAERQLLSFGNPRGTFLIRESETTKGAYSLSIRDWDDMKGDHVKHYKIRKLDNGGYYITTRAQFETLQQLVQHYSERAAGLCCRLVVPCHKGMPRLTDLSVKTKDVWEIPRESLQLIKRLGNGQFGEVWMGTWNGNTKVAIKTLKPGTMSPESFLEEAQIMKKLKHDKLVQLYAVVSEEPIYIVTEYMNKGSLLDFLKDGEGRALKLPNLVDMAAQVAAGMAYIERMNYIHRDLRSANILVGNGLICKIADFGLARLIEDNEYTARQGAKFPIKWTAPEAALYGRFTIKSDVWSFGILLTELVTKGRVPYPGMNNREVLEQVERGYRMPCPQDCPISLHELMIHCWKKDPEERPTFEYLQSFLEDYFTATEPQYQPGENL
# FGFR1, sequence (P11362 whole entry, looked up): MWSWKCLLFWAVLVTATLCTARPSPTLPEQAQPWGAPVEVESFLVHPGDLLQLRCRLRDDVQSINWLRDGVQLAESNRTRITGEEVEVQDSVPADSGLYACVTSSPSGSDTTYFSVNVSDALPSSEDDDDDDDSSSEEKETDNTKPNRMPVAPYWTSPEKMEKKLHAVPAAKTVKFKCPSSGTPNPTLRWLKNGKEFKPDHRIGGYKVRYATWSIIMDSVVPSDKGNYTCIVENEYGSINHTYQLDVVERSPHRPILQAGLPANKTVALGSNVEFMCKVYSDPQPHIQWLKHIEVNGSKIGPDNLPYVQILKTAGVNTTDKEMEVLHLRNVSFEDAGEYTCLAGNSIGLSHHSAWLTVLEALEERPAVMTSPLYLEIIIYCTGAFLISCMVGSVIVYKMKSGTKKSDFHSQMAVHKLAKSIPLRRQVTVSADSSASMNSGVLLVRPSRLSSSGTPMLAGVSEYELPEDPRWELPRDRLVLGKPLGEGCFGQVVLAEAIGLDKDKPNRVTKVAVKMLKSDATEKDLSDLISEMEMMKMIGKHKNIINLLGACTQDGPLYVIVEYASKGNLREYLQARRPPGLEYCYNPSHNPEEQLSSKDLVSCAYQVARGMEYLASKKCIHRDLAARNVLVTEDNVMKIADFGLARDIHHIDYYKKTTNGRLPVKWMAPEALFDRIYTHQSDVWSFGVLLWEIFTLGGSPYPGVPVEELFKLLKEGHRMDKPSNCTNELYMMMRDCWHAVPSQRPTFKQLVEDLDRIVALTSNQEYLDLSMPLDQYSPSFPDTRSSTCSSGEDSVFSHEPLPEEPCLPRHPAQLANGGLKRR
# MERTK, sequence (Q12866 whole entry, looked up): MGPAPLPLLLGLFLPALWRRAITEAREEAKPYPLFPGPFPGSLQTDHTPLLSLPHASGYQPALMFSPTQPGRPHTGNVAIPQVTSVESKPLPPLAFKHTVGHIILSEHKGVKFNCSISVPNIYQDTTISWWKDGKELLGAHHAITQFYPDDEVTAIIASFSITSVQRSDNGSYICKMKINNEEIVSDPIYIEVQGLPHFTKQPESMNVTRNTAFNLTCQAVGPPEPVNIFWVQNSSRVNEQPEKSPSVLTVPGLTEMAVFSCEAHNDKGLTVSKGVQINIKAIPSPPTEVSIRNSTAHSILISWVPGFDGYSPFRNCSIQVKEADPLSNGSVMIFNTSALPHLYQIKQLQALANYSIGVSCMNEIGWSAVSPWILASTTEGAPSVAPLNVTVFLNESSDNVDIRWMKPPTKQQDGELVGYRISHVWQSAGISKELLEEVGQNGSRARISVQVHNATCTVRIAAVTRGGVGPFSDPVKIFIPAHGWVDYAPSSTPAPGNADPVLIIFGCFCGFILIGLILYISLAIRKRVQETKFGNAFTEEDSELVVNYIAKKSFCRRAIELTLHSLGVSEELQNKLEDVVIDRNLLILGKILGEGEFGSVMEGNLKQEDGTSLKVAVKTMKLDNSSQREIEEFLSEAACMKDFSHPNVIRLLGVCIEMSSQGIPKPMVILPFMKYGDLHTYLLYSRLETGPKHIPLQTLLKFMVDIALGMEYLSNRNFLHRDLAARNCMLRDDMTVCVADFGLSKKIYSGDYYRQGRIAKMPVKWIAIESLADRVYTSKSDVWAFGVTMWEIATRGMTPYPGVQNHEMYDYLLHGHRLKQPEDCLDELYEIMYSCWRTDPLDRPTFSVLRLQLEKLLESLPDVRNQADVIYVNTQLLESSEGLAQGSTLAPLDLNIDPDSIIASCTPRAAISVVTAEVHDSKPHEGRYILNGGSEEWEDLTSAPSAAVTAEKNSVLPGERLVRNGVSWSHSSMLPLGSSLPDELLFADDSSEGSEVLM
# FGFR3, sequence (P22607 whole entry, looked up): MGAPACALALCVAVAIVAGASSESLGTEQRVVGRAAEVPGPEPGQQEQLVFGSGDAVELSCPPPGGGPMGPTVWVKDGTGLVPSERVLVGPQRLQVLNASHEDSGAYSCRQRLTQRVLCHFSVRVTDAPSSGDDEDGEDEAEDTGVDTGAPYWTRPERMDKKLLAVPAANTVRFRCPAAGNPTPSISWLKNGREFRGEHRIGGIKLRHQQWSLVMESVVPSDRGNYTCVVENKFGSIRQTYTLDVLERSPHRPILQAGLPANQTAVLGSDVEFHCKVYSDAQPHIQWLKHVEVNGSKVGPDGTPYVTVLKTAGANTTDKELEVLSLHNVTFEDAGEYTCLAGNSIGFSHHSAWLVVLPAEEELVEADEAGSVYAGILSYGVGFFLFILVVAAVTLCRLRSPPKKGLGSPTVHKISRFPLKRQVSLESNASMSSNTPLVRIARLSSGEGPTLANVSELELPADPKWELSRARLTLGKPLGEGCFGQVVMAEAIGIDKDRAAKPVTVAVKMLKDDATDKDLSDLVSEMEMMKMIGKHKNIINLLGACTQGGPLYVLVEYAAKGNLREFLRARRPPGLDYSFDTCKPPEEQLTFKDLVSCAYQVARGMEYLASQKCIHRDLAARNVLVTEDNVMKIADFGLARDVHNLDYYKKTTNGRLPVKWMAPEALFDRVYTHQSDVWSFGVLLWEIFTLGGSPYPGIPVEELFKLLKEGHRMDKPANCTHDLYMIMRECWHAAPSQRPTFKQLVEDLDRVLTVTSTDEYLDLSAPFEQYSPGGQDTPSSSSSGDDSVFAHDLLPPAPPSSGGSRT
# EPHB1, sequence (P54762 whole entry, looked up): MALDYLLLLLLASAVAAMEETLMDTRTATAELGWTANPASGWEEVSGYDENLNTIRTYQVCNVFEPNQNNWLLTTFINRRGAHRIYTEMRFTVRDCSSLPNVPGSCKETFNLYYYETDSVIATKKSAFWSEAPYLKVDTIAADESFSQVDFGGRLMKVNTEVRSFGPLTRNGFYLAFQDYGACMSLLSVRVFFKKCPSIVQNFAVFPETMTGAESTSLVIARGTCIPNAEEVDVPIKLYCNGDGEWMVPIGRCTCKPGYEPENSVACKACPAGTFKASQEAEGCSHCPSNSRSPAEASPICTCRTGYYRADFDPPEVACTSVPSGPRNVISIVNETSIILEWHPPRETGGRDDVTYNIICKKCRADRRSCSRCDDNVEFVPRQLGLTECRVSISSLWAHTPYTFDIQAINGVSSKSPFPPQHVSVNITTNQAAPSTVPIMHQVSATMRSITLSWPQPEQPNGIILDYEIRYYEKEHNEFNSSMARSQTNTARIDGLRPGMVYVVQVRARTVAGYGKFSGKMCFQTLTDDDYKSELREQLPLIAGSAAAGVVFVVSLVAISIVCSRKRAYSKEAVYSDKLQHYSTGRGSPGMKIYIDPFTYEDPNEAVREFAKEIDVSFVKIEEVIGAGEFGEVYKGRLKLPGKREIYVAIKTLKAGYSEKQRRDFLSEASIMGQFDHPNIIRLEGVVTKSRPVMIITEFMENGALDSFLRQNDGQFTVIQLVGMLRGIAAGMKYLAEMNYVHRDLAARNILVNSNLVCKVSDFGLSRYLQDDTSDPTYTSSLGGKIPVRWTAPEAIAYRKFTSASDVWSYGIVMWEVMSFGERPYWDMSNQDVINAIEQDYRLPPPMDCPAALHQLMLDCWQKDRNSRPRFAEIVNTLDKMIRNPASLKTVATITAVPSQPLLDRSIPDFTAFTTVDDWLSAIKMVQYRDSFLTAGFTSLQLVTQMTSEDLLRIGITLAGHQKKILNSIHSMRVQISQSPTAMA
# Hck, sequence (P08631 whole entry, looked up): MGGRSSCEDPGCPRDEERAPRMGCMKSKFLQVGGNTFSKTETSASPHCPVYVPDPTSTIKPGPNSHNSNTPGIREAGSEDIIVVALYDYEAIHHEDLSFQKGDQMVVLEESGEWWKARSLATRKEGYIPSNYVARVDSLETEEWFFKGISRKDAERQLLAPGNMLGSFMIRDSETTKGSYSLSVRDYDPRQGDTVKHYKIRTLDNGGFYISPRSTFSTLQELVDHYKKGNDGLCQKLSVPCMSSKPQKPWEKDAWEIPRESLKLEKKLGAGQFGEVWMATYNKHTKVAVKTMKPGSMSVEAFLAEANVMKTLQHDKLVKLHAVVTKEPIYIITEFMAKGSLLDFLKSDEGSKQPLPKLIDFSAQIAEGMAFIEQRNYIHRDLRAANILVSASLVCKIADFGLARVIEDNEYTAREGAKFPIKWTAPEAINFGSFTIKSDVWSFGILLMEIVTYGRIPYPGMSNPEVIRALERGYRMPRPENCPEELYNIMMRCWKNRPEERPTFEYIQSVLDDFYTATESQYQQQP
SH2 binding enrichment (SHP2-C SH2),SH2 binding enrichment (Grb2 SH2),SH2 binding enrichment (c-Src SH2),Sequence,phosphorylation enrichment (EPHB1),phosphorylation enrichment (Fyn),phosphorylation enrichment (c-Abl (mouse)),phosphorylation enrichment (AncSZ),phosphorylation enrichment (Fes),phosphorylation enrichment (MERTK),phosphorylation enrichment (Fer (mouse)),phosphorylation enrichment (Jak2),phosphorylation enrichment (Hck),phosphorylation enrichment (EPHB2),phosphorylation enrichment (c-Src),phosphorylation enrichment (FGFR1),phosphorylation enrichment (FGFR3)
0.792,0.906,0.937,YKRAVYCIIGR [NUP93_Y391],0.506,0.59,0.563,0.746,0.785,0.849,0.505,0.599,0.755,0.464,0.626,0.429,0.563
0.986,0.747,1.39,YLAAIYPTVGQ [NF1_Y2508_T2507I],0.511,0.513,0.597,0.94,0.89,1.37,0.58,0.671,0.57,0.514,0.528,1.16,0.88
0.604,0.9,0.523,YLEKYYKFGSR [NNMT_Y25],0.453,0.501,0.59,0.69,0.779,0.407,0.508,0.604,0.473,0.48,0.654,0.524,0.553
0.821,0.904,0.908,YLENYYDLKKD [MMP3_Y42],6.01,3.76,0.957,1.83,1.27,1.81,0.759,1.61,3.17,3.03,2.31,9.43,7.09
2.83,1.94,1.44,YMLYQYLKQIE [RPAP3_Y569_D564Y],13.3,1.56,1.6,1.53,1.11,8.62,6.78,1.85,5.99,10.5,2.25,6.02,4.47
0.442,0.684,0.418,YQASYYRRGDR [LTK_Y677_R673Q],0.453,0.492,0.641,0.685,0.713,0.523,0.403,0.635,0.57,0.399,0.527,0.411,0.526
0.6,0.808,0.495,YQKDVYNIPPS [NEDD9_Y177_D178N],0.456,4.4,0.584,0.81,0.702,1.64,0.472,0.805,2.34,0.532,3.29,0.623,0.529
0.597,0.793,0.374,YSKDNYKRVTG [PANK2_Y405],0.362,0.387,0.52,0.675,0.611,0.488,0.494,0.6,0.344,0.44,0.44,0.456,0.4
0.619,0.7,0.56,YSQNICIQNRN [PKP2_Y631_Y631C],0.529,0.415,0.663,0.874,1.01,0.49,0.498,0.777,0.501,0.503,0.432,0.524,0.641

# Further lines, the sequence ahead of its results:
Sequence,SH2 binding enrichment (SHP2-C SH2),SH2 binding enrichment (Grb2 SH2),SH2 binding enrichment (c-Src SH2),phosphorylation enrichment (EPHB1),phosphorylation enrichment (Fyn),phosphorylation enrichment (c-Abl (mouse)),phosphorylation enrichment (AncSZ),phosphorylation enrichment (Fes),phosphorylation enrichment (MERTK),phosphorylation enrichment (Fer (mouse)),phosphorylation enrichment (Jak2),phosphorylation enrichment (Hck),phosphorylation enrichment (EPHB2),phosphorylation enrichment (c-Src),phosphorylation enrichment (FGFR1),phosphorylation enrichment (FGFR3)
YHIDHYLGKEM [G6PD_Y202_R198H],0.664,1.09,0.573,0.437,0.482,0.58,0.599,0.674,0.438,0.478,0.476,0.474,0.505,0.546,0.673,0.667
YIATQYSLRPR [LBR_Y166],0.685,0.762,0.392,0.511,0.558,0.72,0.932,0.773,0.731,0.439,0.779,0.568,0.493,0.659,0.551,0.527
YISLIYTNYEV [GSTP1_Y109_A114V],1.5,1.18,1.16,2,4.07,2.16,1.82,1.55,3.93,5.32,1.54,2.59,1.83,4.53,4.89,4.26
YLGRDYLETLM [DUS3L_Y610],0.803,0.748,0.563,0.617,0.514,0.898,0.937,1.03,0.524,0.637,1.06,0.829,0.544,0.538,2.74,2.29
YNNYGYGSDGF [HNRNPH3_Y161_N163S],0.658,1.49,0.969,2.96,0.507,0.55,0.735,0.784,0.652,0.458,0.631,0.521,5.3,0.505,0.673,0.683
YSKTQYNQVPS [CXADR_Y318],0.714,0.748,0.767,0.351,0.461,0.729,0.473,0.522,0.467,0.386,0.502,0.343,0.318,0.387,0.393,0.429
YSTSPYLLEAA [BRIP1_Y921],1.15,0.657,0.629,0.544,4.67,0.959,0.887,0.931,1.38,0.53,0.694,1.08,0.518,2.21,0.551,0.604
YTFNSYYMHWV [IGHV1-46_Y51_T49N],0.951,1.12,0.839,4.7,1.54,1.1,1.77,1.6,6.9,5.35,6.39,2.52,4.46,2.06,6.62,5.38
YVSSFYHAFSG [ACTN4_Y265],1.79,1.2,2.2,2.21,2.76,1.28,1.04,0.884,8.9,0.564,0.895,2.82,1.41,3.68,3.31,2.32
YYSSEYHYVGG [CTSC_Y345],1.13,0.929,1.98,15.5,5,12.8,6.21,0.945,12.1,4.51,7.76,6.11,17.6,4.92,17.4,16.1
